Common to all, as to assay: binding to purified HLA
In assay [1] the target is DRB1*0802.
Assay [2] concerns the target DRB1*1501.
The target of assay [3] is DRB1*1302.
The target of assay [4] is DRB1*0701.
In assay [5] the target is DRB1*0401.
Assay [6] has as its target DRB1*0101.
Assay [7] concerns the target DRB4*0101.
Assay [8] deals with DRB1*0901.
For assay [9], the target named is DRB1*0404.
In assay [10] the target is DRB1*1101.
Assay [11] addresses DRB5*0101.
Assay [12] addresses DRB1*0301.
Assay [13] has as its target DRB1*0405.

The IC50 is the concentration at which inhibition is half-maximal. Lower therefore signals higher potency. Consider AAAHFVAANTLHAAA [H4.N9.H12], for which the IC50 came out at 17 nM in assay [1]; 79 nM in assay [2]; 47 nM in assay [3]; 76 nM in [4]; 4.5 nM in assay [5]; 4.1 nM in assay [6]. The IC50 in assay [7] worked out at 862 nM; in [8] it was 37 nM; in assay [9], 6.8 nM; in assay [10] it was 22 nM; in assay [11], 33 nM; in [12], 361 nM. In assay [13], the IC50 turned out to be 18 nM.

Source of the values: US20160114035A1 (published 2016).
